According to patent publication US20240117062A1 (published 2024):

What was measured:
Test in all cases: SPR
Cyno BCMA DTA-His = Cyno BCMA DTA-His (cynomolgus;, UniProt A0A2K5UD97 1-53; P00588 33-225)
Human BCMA-Avi-His = target: T1, Human BCMA-Avi-His (human, UniProt Q02223 2-54)
T1 chain: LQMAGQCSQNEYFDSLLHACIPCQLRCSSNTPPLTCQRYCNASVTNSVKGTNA

Human BCMA DTA-His = target: T2, Human BCMA DTA-His (human;, UniProt Q02223 1-54; P00588 33-225)
T2 chain: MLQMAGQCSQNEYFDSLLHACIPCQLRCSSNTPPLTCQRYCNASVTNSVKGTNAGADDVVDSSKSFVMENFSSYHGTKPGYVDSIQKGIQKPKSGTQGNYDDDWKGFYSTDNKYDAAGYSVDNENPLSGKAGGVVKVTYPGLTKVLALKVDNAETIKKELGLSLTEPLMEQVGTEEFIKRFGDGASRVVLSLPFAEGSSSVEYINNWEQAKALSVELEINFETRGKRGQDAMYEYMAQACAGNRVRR

Cyno BCMA-Avi-His = Cyno BCMA-Avi-His (cynomolgus, UniProt A0A2K5UD97 2-53)
Chain of Cyno BCMA-Avi-His (A0A2K5UD97 entry or part of it): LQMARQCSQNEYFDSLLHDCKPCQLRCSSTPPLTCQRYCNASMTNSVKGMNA

B1: CA10_parental (antibody, V domains shown)
VH: QVQLVESGGGVVQPGRSLRLSCAASGFTFSNFGMHWVRQAPGRGLEWVAVIWSDETNRYYADSVKGRFTVSRDNVKSTVYLQMNSLISEDTAVYYCARDQQYCSSDSCFTWFDPWGQGTLVTVSS
VL: QVVVTQESALTTSPGETVTLTCRSSTGTVTPSNYANWVQEKPDHFFTGLIGDNNSRPPGVPARFSASLIGDKAALTITGAQTEDEAMYFCALWFGNQWVFGGGTKVTVL
Cyno BCMA DTA-His
  Kd: 0.0314 nM
Human BCMA-Avi-His
  Kd: 0.0694 nM
Human BCMA DTA-His
  Kd: 0.393 nM
Cyno BCMA-Avi-His
  Kd: 1.43 nM

B2: CA10 Variant 3 (antibody, V domains shown)
VH: QVQLVESGGGVVQPGRSLRLSCAASGFTFSNFGMHWVRQAPGRGLEWVAVIWSDETNRYYADSVKGRFTVSRDNVKSTVYLQMNSLISEDTAVYYCARDQQYCSSDSCFTWFDPWGQGTLVTVSS
VL: QTVVTQEPSLTVSPGGTVTLTCASSTGAVTPSNYANWVQQKPGQAPRGLIGDNNIKPPWTPARFSGSLLGGKAALTLSGVQPEDEAEYYCALWYGGQWVFGGGTKLTVL
Cyno BCMA DTA-His
  Kd: 0.861 nM
Human BCMA-Avi-His
  Kd: 0.182 nM
Human BCMA DTA-His
  Kd: 0.247 nM
Cyno BCMA-Avi-His
  Kd: 11.6 nM

B3: CA10 Variant 2 (antibody, V domains shown)
VH: QVQLVESGGGVVQPGRSLRLSCAASGFTFSNFGMHWVRQAPGRGLEWVAVIWSDETNRYYADSVKGRFTVSRDNVKSTVYLQMNSLISEDTAVYYCARDQQYCSSDSCFTWFDPWGQGTLVTVSS
VL: QTVVTQEPSLTVSPGGTVTLTCASSTGTVTPSNYANWVQQKPGQAPRGLIGDNNSRPPGTPARFSASLLGGKAALTLSGVQPEDEAEYYCALWFGNQWVFGGGTKLTVL
Cyno BCMA DTA-His
  Kd: 0.0915 nM
Human BCMA-Avi-His
  Kd: 0.0666 nM
Human BCMA DTA-His
  Kd: 0.478 nM
Cyno BCMA-Avi-His
  Kd: 1.89 nM

B4: CA10 Variant 6 (antibody, V domains shown)
VH: QVQLVESGGGVVQPGRSLRLSCAASGFTFSNFGMHWVRQAPGRGLEWVAVIWSDETNRYYADSVKGRFTVSRDNVKSTVYLQMNSLISEDTAVYYCARDQQYCSSDSCFTWFDPWGQGTLVTVSS
VL: QTVVTQEPSLTVSPGGTVTLTCASSTGTVTPSNYANWVQQKPGQFPRGLIGDNNSRPPGTPARFSASLLGGKAALTLSGVQPEDEAEYYCALWFGNQWVFGGGTKLTVL
Cyno BCMA DTA-His
  Kd: 0.0962 nM
Human BCMA-Avi-His
  Kd: 0.075 nM
Human BCMA DTA-His
  Kd: 0.0399 nM
Cyno BCMA-Avi-His
  Kd: 1.18 nM

B5: CA10 Variant 5 (CA10_PE_V5) (antibody, V domains shown)
VH: QVQLVESGGGVVQPGRSLRLSCAASGFTFSNFGMHWVRQAPGRGLEWVAVIWSDETNRYYADSVKGRFTVSRDNVKSTVYLQMNSLISEDTAVYYCARDQQYCSSDSCFTWFDPWGQGTLVTVSS
VL: QTVVTQEPSLTVSPGGTVTLTCASSTGAVTSGYYANWVQQKPGQAPRALIGDNNIKPSWTPARFSGSLLGGKAALTLSGVQPEDEAEYYCALYYGGQWVFGGGTKLTVL
Cyno BCMA DTA-His
  Kd: 1.26 nM
Cyno BCMA-Avi-His
  Kd: 8.55 nM

B6: CA10 Variant 4 (antibody, V domains shown)
VH: QVQLVESGGGVVQPGRSLRLSCAASGFTFSNFGMHWVRQAPGRGLEWVAVIWSDETNRYYADSVKGRFTVSRDNVKSTVYLQMNSLISEDTAVYYCARDQQYCSSDSCFTWFDPWGQGTLVTVSS
VL: QTVVTQEPSLTVSPGGTVTLTCASSTGAVTPGYYANWVQQKPGQAPRGLIGDNNNKPPWTPARFSGSLLGGKAALTLSGVQPEDEAEYYCALYYGGQWVFGGGTKLTVL
Cyno BCMA DTA-His
  Kd: 13 nM
Human BCMA-Avi-His
  Kd: 2.57 nM
Human BCMA DTA-His
  Kd: 3.07 nM
Cyno BCMA-Avi-His
  Kd: 64.2 nM

B7: CA10 Variant 1 (antibody, V domains shown)
VH: QVQLVESGGGVVQPGRSLRLSCAASGFTFSNFGMHWVRQAPGRGLEWVAVIWSDETNRYYADSVKGRFTVSRDNVKSTVYLQMNSLISEDTAVYYCARDQQYCSSDSCFTWFDPWGQGTLVTVSS
VL: QTVVTQEPSLTVSPGGTVTLTCRSSTGTVTPSNYANWVQQKPDHFFTGLIGDNNSRPPGVPARFSASLIGDKAALTLSGVQPEDEAEYYCALWFGNQWVFGGGTKLTVL
Cyno BCMA DTA-His
  Kd: 0.0418 nM
Human BCMA-Avi-His
  Kd: 0.0573 nM
Human BCMA DTA-His
  Kd: 0.247 nM
Cyno BCMA-Avi-His
  Kd: 0.732 nM
